Source: patent publication CN107759691A (HANGZHOU SHANGJIAN BIOTECHNOLOGY CO LTD, dated 2018)

T1: 人AXL蛋白胞外段-人IgG1Fc段融合蛋白 (AXL-Fc) (human, UniProt P30530 26-451)
T1 construct: extracellular domain; Expressed in CHO-K1 cells; also called 靶抗原AXL-Fc; not shown: human IgG1 Fc fragment
T1 sequence (looked up): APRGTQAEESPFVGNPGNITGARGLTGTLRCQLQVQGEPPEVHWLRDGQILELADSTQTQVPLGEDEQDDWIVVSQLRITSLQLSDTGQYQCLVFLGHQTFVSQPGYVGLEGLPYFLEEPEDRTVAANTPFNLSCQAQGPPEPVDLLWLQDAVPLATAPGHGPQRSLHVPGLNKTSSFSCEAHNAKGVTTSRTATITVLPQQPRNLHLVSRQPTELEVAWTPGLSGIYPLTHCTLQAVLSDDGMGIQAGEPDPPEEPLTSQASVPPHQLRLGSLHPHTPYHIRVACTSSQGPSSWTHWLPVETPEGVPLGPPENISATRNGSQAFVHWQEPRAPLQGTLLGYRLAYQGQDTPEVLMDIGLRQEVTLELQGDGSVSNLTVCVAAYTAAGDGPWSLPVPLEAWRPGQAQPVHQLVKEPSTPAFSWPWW

T2: A549细胞表面AXL (UniProt P30530 26-894, limits assumed)
T2 construct: whole, on cells; Endogenous AXL on A549 cells, flow cytometry; also called AXL on A549 cells
T2 sequence (looked up): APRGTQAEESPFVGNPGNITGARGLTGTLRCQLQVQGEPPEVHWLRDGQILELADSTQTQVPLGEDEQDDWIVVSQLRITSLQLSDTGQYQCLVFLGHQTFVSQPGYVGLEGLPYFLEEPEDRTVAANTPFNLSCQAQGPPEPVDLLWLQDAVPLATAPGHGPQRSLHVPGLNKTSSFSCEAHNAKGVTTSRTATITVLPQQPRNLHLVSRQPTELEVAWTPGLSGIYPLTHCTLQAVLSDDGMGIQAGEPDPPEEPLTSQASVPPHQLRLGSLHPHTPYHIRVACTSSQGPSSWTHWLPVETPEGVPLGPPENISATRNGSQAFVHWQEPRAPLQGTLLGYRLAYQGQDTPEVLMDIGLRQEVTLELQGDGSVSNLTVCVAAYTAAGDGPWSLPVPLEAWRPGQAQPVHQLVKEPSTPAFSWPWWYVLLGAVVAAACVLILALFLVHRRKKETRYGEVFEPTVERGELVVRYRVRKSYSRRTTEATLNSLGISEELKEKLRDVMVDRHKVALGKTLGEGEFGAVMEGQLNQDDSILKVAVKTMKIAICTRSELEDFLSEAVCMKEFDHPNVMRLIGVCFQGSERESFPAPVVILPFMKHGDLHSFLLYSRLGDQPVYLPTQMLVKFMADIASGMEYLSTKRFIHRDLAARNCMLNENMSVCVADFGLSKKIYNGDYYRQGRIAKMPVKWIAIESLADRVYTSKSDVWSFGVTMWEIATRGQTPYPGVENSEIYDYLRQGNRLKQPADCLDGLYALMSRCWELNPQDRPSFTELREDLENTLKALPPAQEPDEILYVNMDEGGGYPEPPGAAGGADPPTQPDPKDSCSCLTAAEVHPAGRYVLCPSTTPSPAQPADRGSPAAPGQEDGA


Columns and labels:
[1] = target: T1, 人AXL蛋白胞外段-人IgG1Fc段融合蛋白 (AXL-Fc); assay: ELISA, AXL-Fc coated at 1μg/ml, antibody titrated, OD450
[2] = target: T3, BSA(BOVOGEN) (UniProt P02769 25-607); assay: ELISA, protein coated at 1μg/ml, C3D3 detected with HRP goat anti-human IgG
T3 construct: Control coating

[3] = target: T2, A549细胞表面AXL; assay: flow cytometry on A549 cells, C3D3 diluted to 20μg/ml and mixed with an equal volume of cells, PE mouse anti-human IgG

T3 sequence (P02769 25-607 limits assumed): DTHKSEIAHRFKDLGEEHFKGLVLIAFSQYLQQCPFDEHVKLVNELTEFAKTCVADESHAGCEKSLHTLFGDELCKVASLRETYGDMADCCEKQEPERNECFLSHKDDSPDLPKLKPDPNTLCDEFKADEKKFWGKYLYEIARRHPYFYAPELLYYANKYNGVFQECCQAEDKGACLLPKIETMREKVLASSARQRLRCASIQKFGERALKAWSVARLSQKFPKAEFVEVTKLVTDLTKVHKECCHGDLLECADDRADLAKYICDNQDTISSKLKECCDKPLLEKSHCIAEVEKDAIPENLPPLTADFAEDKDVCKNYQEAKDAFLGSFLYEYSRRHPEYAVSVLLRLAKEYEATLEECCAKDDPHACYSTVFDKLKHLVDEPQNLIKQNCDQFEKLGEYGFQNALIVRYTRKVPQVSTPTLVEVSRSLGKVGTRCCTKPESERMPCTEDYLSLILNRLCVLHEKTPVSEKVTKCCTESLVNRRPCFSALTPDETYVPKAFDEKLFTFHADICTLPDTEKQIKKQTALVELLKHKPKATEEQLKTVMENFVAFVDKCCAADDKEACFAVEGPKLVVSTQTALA

Row | binding result [1] | binding result [2] | binding result [3] | Binder
1 | binds |  |  | 3D3抗体 (antibody, V domains shown, also called 3D3 antibody) VH: EVKLLESGGGLVQPEGSLKLSCVASGFDFRRYWMSWVRQAPGKGLEWIGEINPAGSTINQTPSLKDKFIISRDNAKNTLYLQMSKVRSEDTALYYCVRLSVVFYYYGMDYWGQGTSVTVSS VL: not shown
2 | binds | no binding | binds | C3D3(Chimeric 3D3)抗体 (antibody, human IgG1, kappa, V domains shown, Copies of 2 follow from the whole IgG format, not from a printed number; also called C3D3 antibody) VH: EVKLLESGGGLVQPEGSLKLSCVASGFDFRRYWMSWVRQAPGKGLEWIGEINPAGSTINQTPSLKDKFIISRDNAKNTLYLQMSKVRSEDTALYYCVRLSVVFYYYGMDYWGQGTSVTVSS VL: not shown
